Reference: the nanobody polyreactivity screen of Harvey et al. (2022)

Assay: yeast display, Sf9 membrane polyspecificity reagent, FACS + sequencing; frameworks hold sequencing errors
Method in brief: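 Using colony PCR, genes from sorted yeast display clones were amplified, then sequenced on MiSeq at 2 × 250 and filtered by CDR length. The clones had been stained with 10% biotinylated, detergent-solubilized Sf9 membrane reagent for 1 hour at 4 °C and sorted by FACS into low and high (top ~1%) gates on anti-HA and streptavidin fluorescence. Polyreactivity labels come from the gate of origin.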

Sequence | polyreactivity (PSR sort gate)
QVQLVESGGGLVQAGGSLRLSCAASGSTFYTYDMGWYRQAPGKERELVASITSGGSTNYADSVKGRFTISRDNAKNTVYFQMYCMKPVDTAVYYCAVGTYTIYSGTLYDYKYYWGQGTVVTVSS | low polyreactivity
QVQHVESGGGLVQAGGSLRLSCAASGSTFYHNAMGWYRQAPGKERELVAAITSGTSTYYADSVKGRFTISRDNAKNTVYLHMNSLKPEDTAVYYCAADSPWGGGYFVLYNYWGQGTQVTVSS | low polyreactivity
QVQLVESGGGLVQAGGSLRLSCAASGSTFQWNAMGWYRQAPGKERELVASITDSGGRTYYADSVKGRFTISRDNAKNTVYLQMNSLKPEDTAVYYCAAVSLWWSDYYFVEYDYWGQGTQVTVSS | high polyreactivity
QVQLVESGGGLVQAGGSLRLSCAASGRIFNYYAMGWYRQAPGKERELVAVISRTGVRTHYADSVKGRFTISRDIAKNTVYLQMNRLKPEDTAVDYCNADSYVFRYDYWGQGSQVTVSS | high polyreactivity
QVQLVESGGGLVQAGGSLRLSCGASGNTINVNTMGWYRQGPGKERELVAAINSGDNTNYADSVKGRFTISRDNAKNTVYLQMNSLNPVDTAVYSCAAQDYARGVVPGRRAIGYWGQCTQVTVSS | high polyreactivity
QVHLVESGGGLVQAGGSLRLSCAASGSTFWYNAMRWYRQAPGKERELVASIDDIGGSTYYADSVKGRFTISRDNAKYTVYLQMNSLKPEDTAVYYCAKDYGSSYVTDSDYWGQATQVTVSS | low polyreactivity
QVQLVESGGGLVQAGGSLRLSCAASGSTFSIYAMGWYRQAPGKERELVAAITSDGSTYYADSVKGRFTISRDNAKNTVYLQMNSLKPEDTAVYYCAADWWYGWVSYEYWGQGTQVTVSS | high polyreactivity
QVQLVESGGGLVQAGGSLRLSCAASGSTFYYYGMGWYRQAPGKESALVAAISSSGGNTYYADSVKGRFTISRDNAKNTVYLQMNSLKPEDTAVYYCARGGHRGYWGQGTQVTVSS | low polyreactivity
QVQLVESGGGLVQAGGSLRLSCAASGRTSGRYALGWYRQAPGKERELVAAITSSGGSTYYADSVKGRFTISRDTAKNTVYLQMNSLKPEDTAVYYCAAYFRGTGLDRSYKYDYWGQGTQVTVSS | high polyreactivity
QVQLVESGGGLVQAGGSLRLSCAASGLIFRWYAMAWYRQAPGKERELVAAISRRGGTTNYADSVKGRFTISRDNAKNTVYLQMNTLKPEDTAVYYCAADYQSVGGAEYDYWGQGTQVTVSS | high polyreactivity
QVQLVESGGGLVQAGGSLRLSCAASGSISYFNDMGWYRQAPGKERELVAAIRDSGGITYADSVKGRFTISRDNAKNTVYLQMNSLKPEDTAVYYCATYGNEIYDYWGLGTQVTVSS | low polyreactivity
QVQLVESGGGLVQAGGSLRLSCAASGSTFRYYAMGWYRQAPGKERELVAAINSGGSTYYADSVKGRFTISRDNAKNTVYLQMNSLKPEDTAVYYCAAYYFWYLYWGQGTQVTVSS | high polyreactivity
QVQLVESGAGLVQAGGSLRLSCAASGFTFYYNAMGWYRQAPGKERELVASISSNGTSTYYADSVKGRFTISRDYAKNTVYLQMNSLKPEDTAVYYCNVDIFDPRTYDYWGQGTQVTVSS | low polyreactivity
QVQLVESGGGLVQAGGSLRLSCAASGPIFTSNAMGWYRQAPGKERELVAAISRRGTRTYYADSVKGRFTISRDNAKNTVYLQMNSLKPEDTAVYYCAAGWTTRYFGGVDYWGQGTQVTVSS | high polyreactivity
QVQLVESGGGLVQAGGSLRLSCAASGRTYNTNAMGWYRQAPGKERELVAAISGGGSTYADSVKGRFTISRDNAKNTVYLQMNSLKPEDTAVYYCAAQNVWFYGFWRDYWGQGTQVTVSS | low polyreactivity
QVQLVESGGGLVQAGGSLRLSCAASGIILRRYAMGWYRQPPGKERELVAAISSRGGSTYYADSVKGRFTISRDNAKNTVYLQMNSLKPEDTAVYYCAAEDYWYDFDYWGQGTQVTVSS | high polyreactivity
QVQLVESGGGLVQAGGSLRLSCAAYGINFLQYAMGWYRQAPGKDRELVAAITRRGDRTYYADSVKGRFTISRDNAKYTVYLQMISLKPEDTAVYYCAASYWYRDYYYWGQGTQVTVSS | high polyreactivity
QVQLVESGGGLVQAGGSLRLSCAASGSIFPVYAMGWYRQAPGKERELVAAINSSGGTTYYADSVKGRFSNSRDNAKNTVYLQMNSLKPEDTAVYYCAAEICTSSYLAKTYDYWGQGTQVTVSS | low polyreactivity
QVQLVESGGGLVQAGGSLRLSCAASGSIFQTYAMGWYRQAPGKERELVAAITSGGGSTYYADSVKGRFTISRDNAKNTVYLQMNSLKPEDTAVYYCNRLYRYLVWPAGEYDYWGQGTQVTVTS | high polyreactivity
QVQLVESGGGLVQAGGSLRLSCAASGRTFGFNVMGRYRQAPGKERELVAAISWSGGSTYYADSVKGRFTISRDNAKNTVYLQMTSLKPEDTAVYYCNKRYVHRYGYWGQGTQVTVSS | low polyreactivity
QVQLVESGGGLVQAGGSLRLSCAASGSIFADYAMGWYRQAPGKERELVAAITSGGSTYYADSVKGRFTISRDNAKNTVYLQKNSLKPEDTAVYYCAADWAFSRFAYQTDIYEYWGQGTQVTVSS | low polyreactivity
QVQLVDSGGGLVQAGGSLRLSCAASGRTFSLYAMGWYRQAPGKERELVATISQSGGSTYYADSVKGRFTISRDNAKNTVYLQMNSQKPEDTAVYNCAAGGIYLDYFGQGTQVTVSS | low polyreactivity

Sequence | polyreactivity (PSR sort gate)
QVQLLESGGMVQAGGLRLSCAASGSVSYQEAMGWYRQAPGKERELVATISFGANTNYADSVKGRFTISRDNAKNTVYLQMNSLKPEDTAVYYCAAESLFYDYYGYWGQGTQVNVSS | low polyreactivity
QVQLVESGGGFDQAGGSLRLSCAASGSIFFYYVMGWYRQAPGKERELVAVISSGGGSTYYADSVKGRFTISRDNAKNTVYLQMNSLKPEDTAVYYCAAGTYYKFYYWGQGTQVTVSS | high polyreactivity
QVQLVESGGGLVQAGGILSLSCAASGFTFTVYDMGWYRQAPGKERELVAVITSGDGTYYADSVKGRFTISRDNAKNTVYLQMNSLKPEDTAVYYCNARRYSSFRYRFAYDYWGQGTQVTVTS | low polyreactivity
QVQLVESGGGLVQAGGSLRLSCAASGSTFSYYAMGWYRQAPGKEREFVAAISRSGGRTYYADSVKGRFKISRDNAKNTVYLQLNSLKPEDTAVYYCATVYYYDFSRTHPWPGDYWGQGTQVTVSS | high polyreactivity
QVQLVESGGGLVQAGGSLRLSCAASGRIFKTNAMGWYRQAPGKERELVAAISWRGVGTYYADSVKGRFTISRDNAKNTVYLQMNSLKPEDTAVYYCAARWTVPRDTAPSKGYDYWGQGTQVTVSS | low polyreactivity
QVQLVESGGGLVQAGCSLRLSCAASGSNFEENAMGWYRQAPGKESELVAAITIGGRTNYADSVKGRFTISRDNAKNTVYLQMNSLKPEDTAVYYCAADLSSNKYWRFWTRYYYWGQGTQVTVSS | low polyreactivity
QVQLVESGGVLVQAGGSLRLSCAASGSIFKLNAMGWYRQAPGKERELVAVINKSGGRTFYADSVKGRFTISRDNAKNTVYLQMNRLKPEDTAVYYCNAVSNLAVNLDYWGQGTQVTVSS | high polyreactivity
QVQLEESGGGLVQAGGSLRLSCAASGSTFRDYAMGWYRQAPGKQRELVAAITSGGSTNYADSVKGRFTISRDNAKNTVYLQMNSLKPEDTAVYYCNARYAGWYTPWGRQSVYSDDYWGQGTQVTVSS | low polyreactivity
QVQLVESGGGLVQAGGSLRLSCAASGFIFSSNAMGGYRQAPGKERELDATISFSGDSTYYADSVKGRFTISRDNEKNTVYLQMNSLKPEDTAVYYCARSTYYRWYKYGYYDYNYWGQGTQVTVSS | low polyreactivity
QVQLVESGGGLVQAGGSLRLSCAASGIIFYRNAMGWYRQAPGKERELVAGITSGGSTYYADSVKGRFTISRDNAKNTVYLQMNSLIPEDTAVYYCAAYYRASQRYLQYGYWGQGTQVNVSS | high polyreactivity
QVQLVESGGGLVQAGGSHRLSCAASGRIFTYYAMGWYRQAPGKQREFVAAITYRGGRTYYADSVKGRFTISRDNAKNTVYLQLNSLNPEDTAVYYCNVAPYGYWPRYYPWRELDYWGQGTQVTVSS | high polyreactivity
QVQLVETGGGLVQAGGSLRLSCAASGITFKNYAMGWYRQANGKERELVATINRGSRTNYADSVKGRFTISRDNAKNTVYLQMNSLKPEDTAVYYCNVDQANYRWVPWEMDYWGQGSQVTVSS | low polyreactivity
QVQLVESGGGLVQAGGSLRLSCAASGYTFALYAMGWYRQAPGKERELVAAITWNGGSTYYADSVKGRFTISRDNAKNTVYLQMNSLKPEDTSVYYCNVESSQSSSGFDYWGQGTQVTVSL | low polyreactivity
QVQLVESGGGLVQAGGSLRLISAASGNIVYFNAMGWYRQAPGKERELVAAISRAGSTYYADSVKGRFTISRDNAKNTVYLQMNSLKQEDTAVYYCAATTGRPDNYYYWGQGTQVTVSS | high polyreactivity
QVQLVESGGGLVQAGGSLRLSCAASGYTFDWYTMGWYRQAPGKERELVAAISASGVRTYYADSVKGRFTISRDNAKNTVYLQMNSLKPEDTAVYYCNRVYSTSRITQYEFDYWGQGTQVTVSS | low polyreactivity
QVQLVESGGGLVQAGGSLRLSCAASGFTFRWYAMRWYRQAPGKERELVADITRSGDTNYAYSVKGRFTISRDNAKNTVYLQMKSQKPEDTAVYSCAKDWAYRRHWVGFYYWGQGTQVTVSA | low polyreactivity
QVQLVESGGGLVQAGVSLRLSCAASGFIIYGNAMGWYRQAPGKERELVAAINQTGSSTYADSVKGRFTISRDNAKNTVYLQMNSLKPEATAVYYCNKGSWYFFLYDYWGQGTQVTVSS | low polyreactivity
QVQLVESGGGLVQAGGSLRLSSAASGRIFKKNSMGWYRQAPGKERELVAAINWTGGSTYYADSVKGRFTISRDNAMNTVYLQLNSLKPEDTAFYYCAVGVYPSYRGPTFSTRRDYWGQGTQVTVSS | low polyreactivity
QVQLVESCGGLVQAGGSLRLSCASSGFIFFENAMGCYIQAPCKERELVAVISSSGTSTYYADSVKGRFTISRDNAKNTVYLQMTSLKPEDTAVYYCAKDYYRSYGREDYWGQGTQVTVSS | low polyreactivity
QVQLVESGGGLVQAGGSLRLSCAASGLTFIFNTMGWYRQAAGKERVLVAAISTSGGSTYYADSVKGRFTISRDNANNTVYLQMNSVKQEDTAFYYCAKEFKYWGYPYEYWGQGTLVTVSS | low polyreactivity
QVQLVESGVGLVQAGCSLRLSCAASGSTFVLNAMGWYLQAAGKERELVAAISRGGASTYSADSVKGRFTISRDYAKNTVYLQMNSLKPEDTAVYYCNASGYGPGVVIYLVVYDYWGQGTQVTVSS | low polyreactivity
